Source: the Human Domainome abundance scans (Beltran et al. 2025)

B1: Chromodomain-helicase-DNA-binding protein 4, residues 623 to 675; numbered along this chain, Q14839 (parent)
chain: MIHRILNHSVDKKGHVHYLIKWRDLPYDQASWESEDVEIQDYDLFKQSYWNHR

Variants of: B1
Experiment: abundance fitness (aPCA) (normalised: wild type 0, dead -1); higher = more abundant; growth selection in yeast, the domain comes from the species named
Conditions: Homo sapiens

Abundance fitness: each site, then its substitutions
D41: Y -0.431 | Q -0.191 | E -0.507 | M -0.79 | V -0.81 | C -0.807 | L -0.846 | K -0.555 | T -0.892 | I -0.929 | G -0.283 | W -0.529 | S -0.481 | R -0.863 | N -0.151 | F -0.331 | H -0.459
S34: M -0.441 | P -0.022 | C 0.155 | H 0.136 | I -0.852 | K 0.086 | R -0.081 | A -0.103 | Y -0.731 | L -0.411 | G -0.106 | Q -0.111 | N -0.137 | T -0.377 | F -0.618 | E -0.004
Q29: I -1.17 | S -0.27 | P -0.802 | M -0.4 | Y -0.493 | C -0.186 | G -0.608 | H -0.268 | F -0.657 | K 0.101 | A -0.105 | T -0.702 | W -0.589 | L -0.239 | N -0.48 | E -0.262 | D -0.345 | R -0.118
Y27: V 0.097 | E -0.241 | M -0.248 | W -0.18 | K -0.013 | A -0.003 | R 0.04 | C -0.171 | Q 0.197 | I 0.21 | L 0.156 | N 0.042 | T 0.077 | D 0.133 | P 0.018 | G -0.201 | F -0.118 | H 0.068
E35: H -0.769 | D -0.332 | S -0.131 | P -0.874 | A -0.141 | T -0.45 | R -0.882 | F -0.934 | Y -0.757 | Q -0.391 | K -0.844 | L -0.833 | C -0.717 | V -0.809 | W -0.684 | I -0.765 | M -0.874 | G -0.22
Y42: K -0.767 | L -0.592
D28: A 0.116 | M -0.685 | L -0.55 | R -0.169 | T -0.098 | K -0.124 | C -0.025 | F -0.553 | G -0.179 | Y -0.504 | Q -0.354 | I -0.664 | W -0.333 | N -0.028 | V -0.462 | H -0.139
E33: V 0.036 | D -0.947 | F -0.528 | H -0.266 | K -0.072 | G -0.781 | L -0.164 | A -0.109 | I 0.101 | W -0.566 | Q -0.152 | P -0.895 | C 0.13 | R -0.254 | N -0.651 | Y -0.406
D36: I -0.915 | Q -0.415 | F -0.267 | H -0.105 | W -0.37 | P -0.909 | T -0.2 | N 0.134 | C -0.363 | V -0.833 | A -0.455 | L -0.402 | S -0.079 | G -0.299 | K -0.073 | E -0.102 | R -0.255 | M -0.372
V37: K 0.182 | E -0.039 | D -0.262 | P -0.746 | A 0.109 | F -0.166 | Q 0.052 | Y -0.361 | R 0.212 | N 0.155 | C 0.117 | G -0.246 | M 0.171 | W -0.985 | L -0.058 | I -0.217 | T -0.001 | H -0.126
D24: R -0.487 | L -0.535 | K -0.461 | Q -0.439 | C -0.588 | W -0.353 | S -0.294 | V -0.558 | I -0.725 | A -0.335 | F -0.423 | H -0.142 | G -0.115 | M -0.552 | Y -0.53 | E -0.014 | T -0.309 | N -0.077
S31: A -0.817 | M -1.01 | R -0.656 | C -0.551 | G -0.885 | W -0.767 | Q -0.646 | I -0.702 | H -0.916 | V -0.61 | N -0.604 | T 0.067 | E -0.784 | D -0.854 | Y -0.711
A30: V -0.541 | C -0.136 | I 0.111 | W -0.465 | P -0.356 | E -0.717 | H -0.645 | L -0.813 | R -0.401 | F -0.586 | N -0.347 | S -0.325 | T -0.653 | Q -0.866 | G -0.977
P26: I -0.907 | T -0.392 | F -0.749 | E -0.562 | S -0.19 | R -0.533 | V -0.762 | Y -0.339 | D -0.163 | G -0.019 | M -0.761 | K -0.59 | C -0.701 | W -0.662 | H -0.274 | A -0.751 | Q -0.602 | N -0.201 | L -0.62
I39: T -0.72 | W -0.818 | H -0.39 | Q -0.764 | S -0.745 | D -0.992 | V -0.722 | L 0.026 | N -1.06 | R -0.756 | C -0.753 | P -0.897 | F 0.139 | Y -0.195 | M -0.462 | G -0.847 | E -1.02 | A -0.805 | K -0.879
W32: C -0.783 | Y -0.909 | F -0.93 | D -0.812 | E -0.737 | R -0.724 | I -0.71 | P -0.755 | S -0.933 | T -0.955 | G -0.88 | M -0.827 | N -0.776 | H -0.788 | L -0.732 | V -0.732 | K -1.01 | A -0.997 | Q -0.75
R23: S -0.236 | F -0.349 | I -0.161 | Q -0.12 | K 0.021 | L -0.219 | W -0.183 | P -0.835 | M -0.265 | N -0.5 | T -0.189 | G -0.481 | Y -0.139 | H -0.164
E38: D -0.175 | M -0.095 | L -0.199 | G -0.227 | R -0.37 | Y -0.337 | W -0.257 | F -0.113 | V -0.217 | P -0.2 | T -0.187 | Q -0.018 | I -0.122 | S -0.157 | C -0.144 | N -0.472 | H -0.324
Q40: R -0.161 | L -0.271 | V -0.131 | T -0.036 | Y -0.504 | M -0.14 | H -0.122 | C -0.043 | P -0.061 | I -0.252 | A -0.052 | K 0.041 | S -0.286 | D -0.047 | W -0.549 | E -0.061 | F -0.548
D43: C -0.236 | G -0.147 | H -0.186 | K -0.456 | E 0.099 | I -0.862 | L -0.423 | F -0.394 | A -0.205
L25: T -0.013 | A -0.256 | S -0.125 | Y -0.325 | M 0.096 | R 0.059 | I -0.344 | Q -0.045 | P -0.398 | N -0.143 | K 0.206 | F -0.254 | H -0.195 | E -0.363 | V -0.249
